Patent US20140341881A1 (DERMADIS, published 2014)
Residue numbers refer to the chain shown, from its start. Blank lines part the entries; values can stand above or below the binder they belong to.

Legend:
human kallikrein 2 (hK2) [1] = biological target: T1, human kallikrein 2 (hK2) (human, UniProt P20151 25-261); assay: cell-based or functional assay
[2] = biological target: T2, prostate specific antigen (PSA, hK3) (human, UniProt P07288 25-261); assay: cell-based or functional assay
human kallikrein hK1 = human kallikrein hK1 (human, UniProt P06870 25-262); assay: cell-based or functional assay
[3] = biological target: T3, human chymotrypsin (Chtr) (human, UniProt P17538 19-263); assay: cell-based or functional assay
T3 sequence (P17538 19-263): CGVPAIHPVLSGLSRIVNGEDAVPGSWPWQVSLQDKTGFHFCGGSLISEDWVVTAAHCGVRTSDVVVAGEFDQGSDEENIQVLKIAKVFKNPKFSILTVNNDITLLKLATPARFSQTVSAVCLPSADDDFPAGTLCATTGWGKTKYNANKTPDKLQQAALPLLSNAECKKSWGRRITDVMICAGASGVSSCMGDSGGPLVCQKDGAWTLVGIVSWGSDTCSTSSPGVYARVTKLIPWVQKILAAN

[4] = biological target: T4, urokinase plasminogen activator (uPA) (UniProt P00749 21-431, limits assumed); assay: cell-based or functional assay
human kallikrein 2 (hK2) [5] = biological target: T1, human kallikrein 2 (hK2); assay: cell-based or functional assay; remark: listed apart in the source
[6] = biological target: T2, prostate specific antigen (PSA, hK3); assay: cell-based or functional assay; remark: listed apart in the source
[7] = biological target: T3, human chymotrypsin (Chtr); assay: cell-based or functional assay; remark: listed apart in the source
thrombin [8] = assay: cell-based or functional assay
human kallikrein 5 (hK5) = biological target: T5, human kallikrein 5 (hK5) (human, UniProt Q9Y337 67-293, limits assumed); assay: cell-based or functional assay
T5 sequence (looked up): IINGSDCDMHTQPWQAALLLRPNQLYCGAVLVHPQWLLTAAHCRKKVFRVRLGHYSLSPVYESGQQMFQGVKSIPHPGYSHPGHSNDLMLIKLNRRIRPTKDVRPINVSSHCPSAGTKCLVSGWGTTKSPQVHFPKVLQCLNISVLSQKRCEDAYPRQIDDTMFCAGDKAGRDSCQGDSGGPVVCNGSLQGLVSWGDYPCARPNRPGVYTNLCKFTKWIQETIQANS

human kallikrein 6 (hK6) = human kallikrein 6 (hK6) (human, UniProt Q92876 22-244); assay: cell-based or functional assay
human kallikrein 8 (hK8) = biological target: T6, human kallikrein 8 (hK8) (human, UniProt O60259 33-260); assay: cell-based or functional assay
T6 sequence (looked up): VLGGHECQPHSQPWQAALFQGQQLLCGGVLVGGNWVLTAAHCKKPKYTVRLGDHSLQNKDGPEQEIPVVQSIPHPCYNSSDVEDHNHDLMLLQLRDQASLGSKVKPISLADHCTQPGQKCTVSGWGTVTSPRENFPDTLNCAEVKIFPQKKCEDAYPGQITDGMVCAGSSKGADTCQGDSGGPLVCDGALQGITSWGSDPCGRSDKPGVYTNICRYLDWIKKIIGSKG

[9] = biological target: T7, human kallikrein 13 (hK13) (human, UniProt Q9UKR3 26-277, limits assumed); assay: cell-based or functional assay
T7 sequence (looked up): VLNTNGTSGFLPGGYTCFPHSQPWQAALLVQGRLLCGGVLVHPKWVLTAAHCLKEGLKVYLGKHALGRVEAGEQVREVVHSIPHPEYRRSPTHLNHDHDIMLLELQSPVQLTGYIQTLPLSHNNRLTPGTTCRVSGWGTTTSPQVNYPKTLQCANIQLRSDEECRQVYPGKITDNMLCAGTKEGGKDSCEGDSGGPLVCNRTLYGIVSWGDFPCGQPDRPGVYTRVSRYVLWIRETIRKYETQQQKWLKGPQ

[10] = biological target: T3, human chymotrypsin (Chtr); assay: cell-based or functional assay; remark: listed apart in the source
[11] = biological target: T4, urokinase plasminogen activator (uPA); assay: cell-based or functional assay; remark: listed apart in the source
thrombin [12] = assay: cell-based or functional assay; remark: listed apart in the source
[13] = biological target: T3, human chymotrypsin (Chtr); assay: residual enzyme activity against [I]o/[E]o, fluorogenic substrate
Procedure: The stoichiometry of inhibition (SI) values were determined for the inhibition of rACTWT and its variants with hK2 and different other enzymes. An initial test was made with a molar excess of rACT (100 fold) over hK2, PSA, hK1, chymotrypsin (Chtr), plasma kallikrein (PK), urokinase (uPA) and human neutrophile elastase (HNE) enzymes. The reaction was carried out for 30 min at 25° C. (90 min at 37° C. for PSA) in reaction buffer (50 mM Tris pH 7.5, 150 mM NaCl, 0,05% Triton X-100, 0.01% BSA) and residual enzyme activity was measured by adding fluorescent substrates (Z-Phe-Arg-AMC for hK1, hK2 and PK, Suc-Ala-Ala-Pro-Phe-AMC for Chtr, Z-Gly-Gly-Arg-AMC for uPA, MeOSuc-Ala-Ala-Pro-Val-AMC for HNE, and CFP-TFRSA-YFP (TFRSA SEQ ID NO:137) for PSA). Activity of enzyme in presence of inhibitors was compared to uninhibited reaction. For reactions where an inhibition was observed, SI was determined by incubating different concentrations of recombinant serpins. Using linear regression analysis of fractional activity (velocity of inhibited enzyme reaction/velocity of uninhibited enzyme reaction) versus the molar ratio of the inhibitor to enzyme ([Iₒ]/[Eₒ]), the stoichiometry of inhibition, corresponding to the abscissa intercept, was obtained.

[14] = biological target: T8, human plasma kallikrein (PK) (human, UniProt P03952 20-638); assay: cell-based or functional assay
T8 sequence (P03952 20-638 limits assumed): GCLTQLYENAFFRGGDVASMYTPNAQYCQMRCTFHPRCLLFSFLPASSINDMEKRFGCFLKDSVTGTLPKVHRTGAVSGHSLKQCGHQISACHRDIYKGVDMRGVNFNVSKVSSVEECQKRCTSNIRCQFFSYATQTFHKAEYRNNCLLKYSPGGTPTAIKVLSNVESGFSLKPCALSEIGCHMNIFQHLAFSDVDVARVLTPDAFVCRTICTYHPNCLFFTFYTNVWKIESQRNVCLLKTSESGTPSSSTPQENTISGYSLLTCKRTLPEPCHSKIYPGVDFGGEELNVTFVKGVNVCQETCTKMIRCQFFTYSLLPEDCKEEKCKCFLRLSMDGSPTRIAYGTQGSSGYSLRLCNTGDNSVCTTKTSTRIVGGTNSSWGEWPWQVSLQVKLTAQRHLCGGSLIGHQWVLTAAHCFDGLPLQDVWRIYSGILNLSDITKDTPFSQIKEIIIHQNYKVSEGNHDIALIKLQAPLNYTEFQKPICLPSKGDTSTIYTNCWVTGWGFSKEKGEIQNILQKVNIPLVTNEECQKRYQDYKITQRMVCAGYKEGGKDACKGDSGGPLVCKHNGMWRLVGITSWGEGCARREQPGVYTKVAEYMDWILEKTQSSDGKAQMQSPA

[15] = biological target: T9, human neutrophil elastase (HNE) (human, UniProt P08246 30-247, limits assumed); assay: cell-based or functional assay
T9 sequence (looked up): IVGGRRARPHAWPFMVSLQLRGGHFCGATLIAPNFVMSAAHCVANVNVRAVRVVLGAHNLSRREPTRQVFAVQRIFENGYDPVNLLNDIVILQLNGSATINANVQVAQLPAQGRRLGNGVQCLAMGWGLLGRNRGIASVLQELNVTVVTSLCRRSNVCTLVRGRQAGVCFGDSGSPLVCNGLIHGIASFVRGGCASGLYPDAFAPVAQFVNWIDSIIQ

[16] = biological target: T10, human kallikrein 14 (hK14) (human, UniProt Q9P0G3 25-251, limits assumed); assay: cell-based or functional assay
T10 sequence (looked up): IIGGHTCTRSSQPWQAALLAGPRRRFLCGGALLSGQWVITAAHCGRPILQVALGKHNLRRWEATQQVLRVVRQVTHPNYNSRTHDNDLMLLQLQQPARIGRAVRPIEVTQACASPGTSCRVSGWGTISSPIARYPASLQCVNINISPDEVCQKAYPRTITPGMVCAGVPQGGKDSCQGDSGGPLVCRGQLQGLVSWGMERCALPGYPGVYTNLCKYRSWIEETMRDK

[17] = biological target: T8, human plasma kallikrein (PK); assay: cell-based or functional assay; remark: listed apart in the source
[18] = biological target: T9, human neutrophil elastase (HNE); assay: cell-based or functional assay; remark: listed apart in the source
[19] = biological target: T10, human kallikrein 14 (hK14); assay: cell-based or functional assay; remark: listed apart in the source
[20] = biological target: T10, human kallikrein 14 (hK14); assay: residual hK14 activity against [I0]/[E0]
Procedure: (§1) SI values of rAAT, rACT, and their variants were determined with hK14 incubating the protease with varying concentrations of inhibitor. After an incubation of 4 hours at 37° C. in reaction buffer (50 mM Tris, pH 7.5, 150 mM NaCl, 0.05% Triton X-100, 0.01% BSA), the residual activity was detected by the addition of fluorescent substrate (Boc-Val-Pro-Arg-AMC). Fluorescence was measured with excitation at 340 nm (±15) and emission at 485 nm (±10) in black 96 well plates using a microplate fluorescence reader FLₓ800 (Bio-Tek Instruments, Inc.). The SI value corresponds to the abscissa intercept of the linear regression analysis of fractional velocity (velocity of inhibited enzyme reaction (vi)/velocity of uninhibited enzyme reaction (v₀)) vs. the molar ratio of the inhibitor to enzyme ([I₀]/[E₀]).

[21] = biological target: T10, human kallikrein 14 (hK14); assay: residual hK14 activity after 4 h at 37 C against [I0]/[E0]
Procedure: as §1

- INHIBITION % (human kallikrein 2 (hK2) [1]): 0%
- INHIBITION % [2]: 80%
- INHIBITION % (human kallikrein hK1): 0%
- INHIBITION % [3]: 100%
- INHIBITION % [4]: 0%
- Percentage inhibition (human kallikrein 2 (hK2) [5]): 0%
- Percentage inhibition [6]: 100%
- Percentage inhibition [7]: 100%
- Percentage inhibition (thrombin [8]): 18%
- Percentage inhibition (human kallikrein 5 (hK5)): 7%
- Percentage inhibition (human kallikrein 6 (hK6)): 24%
- Percentage inhibition (human kallikrein 8 (hK8)): 0%
- Percentage inhibition [9]: 0%
- % Inhibition [10]: 100%
- % Inhibition [11]: 0%
- % Inhibition (thrombin [12]): 18%
- SI (stoichiometry of inhibition) [13]: 2
B1: rACTWT (recombinant wild type alpha-1-antichymotrypsin) (other, human)
chain: HHHHHHHPNSPLDEENLTQENQDRGTHVDLGLASANVDFAFSLYKQLVLKAPDKNVIFSPLSISTALAFLSLGAHNTTLTEILKGLKFNLTETSEAEIHQSFQHLLRTLNQSSDELQLSMGNAMFVKEQLSLLDRFTEDAKRLYGSEAFATDFQDSAAAKKLINDYVKNGTRGKITDLIKDLDSQTMMVLVNYIFFKAKWEMPFDPQDTHQSRFYLSKKKWVMVPMMSLHHLTIPYFRDEELSCTVVELKYTGNASALFILPDQDKMEEVEAMLLPETLKRWRDSLEFREIGELYLPKFSISRDYNLNDILLQLGIEEAFTSKADLSGITGARNLAVSQVVHKAVLDVFEEGTEASAATAVKITLLSALVETRTIVRFNRPFLMIIVPTDTQNIFFMSKVTNPKQA
notes: also called wild type rACT; wild type ACT

- Percentage inhibition (human kallikrein 2 (hK2) [5]): 19%
- Percentage inhibition [6]: 0%
- Percentage inhibition [7]: 19%
- Percentage inhibition [14]: 100%
- Percentage inhibition [15]: 0%
- Percentage inhibition (thrombin [8]): 0%
- Percentage inhibition [16]: 100%
- Percentage inhibition (human kallikrein 5 (hK5)): 100%
- Percentage inhibition (human kallikrein 6 (hK6)): 100%
- Percentage inhibition (human kallikrein 8 (hK8)): 36%
- Percentage inhibition [9]: 30%
- % Inhibition [10]: 19%
- % Inhibition [17]: 100%
- % Inhibition [11]: 0%
- % Inhibition [18]: 0%
- % Inhibition (thrombin [12]): 0%
- % Inhibition [19]: 100%
- SI (stoichiometry of inhibition) [20]: 7.4
- SI (stoichiometry of inhibition) [21]: 7.4
B2: AATE8 (other, human)
chain: HHHHHHEDPQGDAAQKTDTSHHDQDHPTFNKITPNLAEFAFSLYRQLAHQSNSTNIFFSPVSIATAFAMLSLGTKADTHDEILEGLNFNLTEIPEAQIHEGFQELLRTLNQPDSQLQLTTGNGLFLSEGLKLVDKFLEDVKKLYHSEAFTVNFGDTEEAKKQINDYVEKGTQGKIVDLVKELDRDTVFALVNYIFFKGKWERPFEVKDTEEEDFHVDQVTTVKVPMMKRLGMFNIQHCKKLSSWVLLMKYLGNATAIFFLPDEGKLQHLENELTHDIITKFLENEDRRSASLHLPKLSITGTYDLKSVLGQLGITKVFSNGADLSGVTEEAPLKLSKAVHKAVLTIDEKGTEAAGAMFLEALQRAIPPEVKFNKPFVFLMIEQNTKSPLFMGKVVNPTQK
notes: mature; also called rAATE8

- Percentage inhibition (human kallikrein 2 (hK2) [5]): 0%
- Percentage inhibition [6]: 0%
- Percentage inhibition [7]: 100%
- Percentage inhibition [14]: 0%
- Percentage inhibition [15]: 0%
- Percentage inhibition (thrombin [8]): 0%
- Percentage inhibition [16]: 100%
- Percentage inhibition (human kallikrein 5 (hK5)): 30%
- Percentage inhibition (human kallikrein 6 (hK6)): 0%
- Percentage inhibition (human kallikrein 8 (hK8)): 0%
- Percentage inhibition [9]: 0%
- % Inhibition [10]: 100%
- % Inhibition [17]: 0%
- % Inhibition [11]: 0%
- % Inhibition [18]: 0%
- % Inhibition (thrombin [12]): 0%
- % Inhibition [19]: 100%
- SI (stoichiometry of inhibition) [20]: 1.2
- SI (stoichiometry of inhibition) [21]: 1.2
B3: AATG9 (other, human)
chain: B2 chain with A361T, L362V, Q363D, R364Y
notes: mature; also called rAATG9
